In PMC10272187, “PPP2R1A regulates migration persistence through the NHSL1-containing WAVE Shell Complex” (Nature Communications, 2023):

Target: T1, WAVE1 (1-230) (UniProt Q92558 1-230)
T1 construct: WAVE1 residues 1-230; also called WAVE1 N-terminus; source: E.coli, purified
T1 sequence (looked up): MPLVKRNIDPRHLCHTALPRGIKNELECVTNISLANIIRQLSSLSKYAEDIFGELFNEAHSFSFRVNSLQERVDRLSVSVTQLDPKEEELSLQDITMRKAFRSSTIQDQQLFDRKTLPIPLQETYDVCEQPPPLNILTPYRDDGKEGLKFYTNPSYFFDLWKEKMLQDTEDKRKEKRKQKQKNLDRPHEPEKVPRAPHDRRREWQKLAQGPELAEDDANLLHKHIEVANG
Assay: SEC; Recombinant subunits expressed individually; CYFIP1-NCKAP1 dimer and BRK1-ABI1-NHSL1 (or WAVE1) trimer reconstituted; pentamers purified on SOURCE 15Q and Superdex 200 (24 ml column)
Conditions: both partners purified

binding result: binds
B1: BRK1 (recombinant) (natural protein, UniProt Q8WUW1 1-75, looked up)
chain: MAGQEDPVQREIHQDWANREYIEIITSSIKKIADFLNSFDMSCRSRLATLNEKLTALERRIEYIEARVTKGETLT
notes: BRK1; source: E.coli, purified
